Experiment [1] addresses T1, EGFP-Atg11 (full-length yeast Atg11) (yeast (S. cerevisiae), UniProt Q12527 1-1178).
T1 construct: Atg11, S. cerevisiae, full length, 135 kDa; also called EGFP tagged Atg11; not shown: EGFP, N-terminal, kept
T1 sequence (looked up): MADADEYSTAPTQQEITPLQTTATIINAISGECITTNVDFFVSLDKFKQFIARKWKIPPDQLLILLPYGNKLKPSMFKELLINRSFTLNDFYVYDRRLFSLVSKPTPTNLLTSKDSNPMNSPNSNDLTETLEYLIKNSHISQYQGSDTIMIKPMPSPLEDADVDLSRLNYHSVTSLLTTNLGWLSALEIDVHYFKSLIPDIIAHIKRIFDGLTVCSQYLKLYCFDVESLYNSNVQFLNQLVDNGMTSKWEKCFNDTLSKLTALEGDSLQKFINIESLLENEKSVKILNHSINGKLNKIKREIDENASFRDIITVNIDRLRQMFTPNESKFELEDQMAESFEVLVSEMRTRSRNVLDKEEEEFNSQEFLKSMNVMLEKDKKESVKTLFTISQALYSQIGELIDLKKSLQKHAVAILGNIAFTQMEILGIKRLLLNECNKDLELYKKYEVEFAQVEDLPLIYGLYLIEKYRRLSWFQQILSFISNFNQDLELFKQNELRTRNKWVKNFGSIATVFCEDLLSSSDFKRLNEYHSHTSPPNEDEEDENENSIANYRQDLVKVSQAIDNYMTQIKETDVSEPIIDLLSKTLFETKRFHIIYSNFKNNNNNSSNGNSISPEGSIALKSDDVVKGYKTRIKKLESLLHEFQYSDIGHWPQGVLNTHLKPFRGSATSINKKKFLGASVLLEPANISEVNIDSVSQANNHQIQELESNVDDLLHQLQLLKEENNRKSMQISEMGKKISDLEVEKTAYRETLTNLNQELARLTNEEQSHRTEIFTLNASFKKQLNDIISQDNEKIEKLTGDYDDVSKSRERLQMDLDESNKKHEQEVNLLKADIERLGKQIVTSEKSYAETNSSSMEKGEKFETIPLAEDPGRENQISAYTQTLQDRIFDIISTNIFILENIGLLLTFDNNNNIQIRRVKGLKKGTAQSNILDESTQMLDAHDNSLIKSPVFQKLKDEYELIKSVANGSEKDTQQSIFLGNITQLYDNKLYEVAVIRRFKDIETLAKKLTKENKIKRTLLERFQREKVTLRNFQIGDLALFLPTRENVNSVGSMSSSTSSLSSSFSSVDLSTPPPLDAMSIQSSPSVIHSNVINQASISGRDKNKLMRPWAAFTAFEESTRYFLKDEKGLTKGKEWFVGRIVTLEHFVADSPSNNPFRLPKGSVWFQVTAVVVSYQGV
Nature of the experiment: ITC; Atg9-NTD (300 to 500 μM, syringe) into EGFP-Atg11 (50 to 100 μM, cell); 25 °C; 20 mM Tris pH 7.4, 300 mM NaCl; single binding site; two replicates. To be noted: both partners purified. On the technique in general: Isothermal titration calorimetry measures the heat released or taken up as one component is titrated into another.

Experiment [2] deals with T1, EGFP-Atg11 (full-length yeast Atg11). Description: NMR titration; 1H-15N HSQC of 0.2 mM labelled Atg9-NTD, unlabelled EGFP-Atg11 added stepwise (0.02, 0.04, 0.08 mM); 20 mM Bis-Tris pH 6, 300 mM NaCl; 298 K, 600 MHz; read-out: loss of peak intensity. Particulars: both partners purified.

Here are results for three molecules from publication PMC8814668, “Mechanism of Atg9 recruitment by Atg11 in the cytoplasm-to-vacuole targeting pathway” (The Journal of Biological Chemistry, 2022).

Where “and” joins values, the source holds several entries; their conditions need not be identical. Identical values can stand only once.

B1: Atg9-NTD-(1–255)-mCherry, wild type (domain or fragment, S. cerevisiae, UniProt Q12142 1-255, looked up)
chain: MERDEYQLPNSHGKNTFLSRIFGLQSDEVNPSLNSQEMSNFPLPDIERGSSLLHSTNDSREDVDENDLRVPESDQGTSTEEEDEVDEEQVQAYAPQISDGLDGDHQLNSVTSKENVLETEKSNLERLVEGSTDDSVPKVGQLSSEEEEDNEFINNDGFDDDTPLFQKSKIHEFSSKKSNTIEDGKRPLFFRHILQNNRPQRDTQKLFTSSNAIHHDKDKSANNGPRNINGNQKHGTKYFGSATQPRFTGSPLNNT
notes: mCherry is named for the bead assay; also called mCherry-tagged Atg9-NTD; not shown: mCherry, C-terminal, kept
As for B1, in experiment [1], the Kd – broadly, the constant that tells how readily two partners part at equilibrium – turned out to be 1090 nM; the dH was -5.87 ± 1.34 kcal/mol; the stoichiometry N (in general, the number of molecules, sites or subunits per partner or assembly) is 0.931 and 0.94.

B2: Atg9-NTD(1–285) (domain or fragment, S. cerevisiae, UniProt Q12142 1-285, looked up)
chain: MERDEYQLPNSHGKNTFLSRIFGLQSDEVNPSLNSQEMSNFPLPDIERGSSLLHSTNDSREDVDENDLRVPESDQGTSTEEEDEVDEEQVQAYAPQISDGLDGDHQLNSVTSKENVLETEKSNLERLVEGSTDDSVPKVGQLSSEEEEDNEFINNDGFDDDTPLFQKSKIHEFSSKKSNTIEDGKRPLFFRHILQNNRPQRDTQKLFTSSNAIHHDKDKSANNGPRNINGNQKHGTKYFGSATQPRFTGSPLNNTNRFTKLFPLRKPNLLSNISVLNNTPEDRIN
notes: Atg9, S. cerevisiae, N-terminal disordered domain, residues 1-285; The EGFP tag was cleaved with 3C protease for the sample of the resonance assignment; also called Atg9 NTD (residues 1–285); fragment 1 to 285
As to B2, the binding result in experiment [2] is on record as “binds”.

B3: Atg9-NTD (29–255)-mCherry (domain or fragment, S. cerevisiae, UniProt Q12142 29-255, looked up)
chain: VNPSLNSQEMSNFPLPDIERGSSLLHSTNDSREDVDENDLRVPESDQGTSTEEEDEVDEEQVQAYAPQISDGLDGDHQLNSVTSKENVLETEKSNLERLVEGSTDDSVPKVGQLSSEEEEDNEFINNDGFDDDTPLFQKSKIHEFSSKKSNTIEDGKRPLFFRHILQNNRPQRDTQKLFTSSNAIHHDKDKSANNGPRNINGNQKHGTKYFGSATQPRFTGSPLNNT
notes: also called shorter construct of Atg9-NTD; not shown: mCherry, C-terminal, kept
As for B3, the binding result in experiment [2] is listed as “binds”.
